B1: Sso7d construct 4.1A03 (EGFR, Purif. No. 2) (designed binder)
chain: ATVKFTYQGEEKQVDISKIKIVDRYGQYIHFRYDEGGGANGWGWVSEKDAPKELLQMLEKQ
notes: Purified from E. coli on anti-APP columns; It is NGS hit no; 3, at 2.18%; also called Hit NO; not shown: APP tag of the vector
B2: Sso7d construct 4.2B11 (EGFR, Purif. No. 6) (designed binder)
chain: ATVKFTYQGEEKQVDISKIKIVDRYGQNIHFNYDEGGGAWGWGWVSEKDAPKELLQMLEKQ
notes: Purified from E. coli on anti-APP columns; It is NGS hit no; 24, at 0.89%; also called Hit No. 24; not shown: APP tag of the vector
B3: Sso7d construct 4.4E10 (EGFR, Purif. No. 7) (designed binder)
chain: ATVKFTYQGEEKQVDISKIKIVDRYGQYIHFYYDEGGGADGWGWVSEKDAPKELLQMLEKQ
notes: Purified from E. coli on anti-APP columns; not shown: APP tag of the vector
B4: Sso7d construct 4.1H02 (EGFR, Purif. No. 4) (designed binder)
chain: ATVKFTYQGEEKQVDISKIKIVDRYGQWIHFRYDEGGGADGWGWVSEKDAPKELLQMLEKQ
notes: as for B3
B5: Sso7d construct 4.1A02 (EGFR, Purif. No. 1) (designed binder)
chain: ATVKFTYQGEEKQVDISKIKIVDRYGQWIHFNYDEGGGAYGWGWVSEKDAPKELLQMLEKQ
notes: Purified from E. coli BL21(DE3) on anti-APP columns; It was found 1x on the plate and was not in the NGS Top30
B6: Sso7d construct 4.2A08 (EGFR, Purif. No. 5) (designed binder)
chain: ATVKFTYQGEEKQVDISKIKIVDRYGQNIHFYYDEGGGANGWGWVSEKDAPKELLQMLEKQ
notes: Purified from E. coli on anti-APP columns; It is NGS hit 1, at 4.56%; also called Hit 1 NGS; not shown: APP tag of the vector

For the assay, the target named is T1, human EGFR on HKB11 cells stably over-expressing hEGFR (human, UniProt P00533 25-1210).
T1 construct: whole, on cells; The control lines were HKB11 w.t. cells, which express EGFR endogenously, and HKB11 EGFR knockout cells; also called HKB11_EGFR; HKB11-EGFR transfected
Briefly: FACS of purified APP-tagged Sso7d on EGFR-overexpressing HKB11 cells versus EGFR knock out cells.
Turning to B1, the binding result is recorded as “binds”.
Turning to B2, the binding result is on record as “binds”.
For the molecule B3, the binding result was “binds”.
B4: the binding result was “binds”.
On to B5, for which the binding result is on record as “binds”.
Regarding B6, the binding result is “binds”.

For the origin of these results see patent US20250353883A1 (Novartis, published 2025).
